Laboratory results reported in the supplement of paper PMC10065799, “High-throughput profiling of sequence recognition by tyrosine kinases and SH2 domains using bacterial peptide display” (eLife, 2023).

How the values were obtained:
[1] = biological target: Fes (UniProt P07332); experiment: phosphorylation enrichment, bacterial display (enrichment ratio); higher = better substrate or ligand; peptides without Tyr show the background
[2] = biological target: MERTK (UniProt Q12866); experiment: as above
Sequence of MERTK (Q12866 whole entry, looked up): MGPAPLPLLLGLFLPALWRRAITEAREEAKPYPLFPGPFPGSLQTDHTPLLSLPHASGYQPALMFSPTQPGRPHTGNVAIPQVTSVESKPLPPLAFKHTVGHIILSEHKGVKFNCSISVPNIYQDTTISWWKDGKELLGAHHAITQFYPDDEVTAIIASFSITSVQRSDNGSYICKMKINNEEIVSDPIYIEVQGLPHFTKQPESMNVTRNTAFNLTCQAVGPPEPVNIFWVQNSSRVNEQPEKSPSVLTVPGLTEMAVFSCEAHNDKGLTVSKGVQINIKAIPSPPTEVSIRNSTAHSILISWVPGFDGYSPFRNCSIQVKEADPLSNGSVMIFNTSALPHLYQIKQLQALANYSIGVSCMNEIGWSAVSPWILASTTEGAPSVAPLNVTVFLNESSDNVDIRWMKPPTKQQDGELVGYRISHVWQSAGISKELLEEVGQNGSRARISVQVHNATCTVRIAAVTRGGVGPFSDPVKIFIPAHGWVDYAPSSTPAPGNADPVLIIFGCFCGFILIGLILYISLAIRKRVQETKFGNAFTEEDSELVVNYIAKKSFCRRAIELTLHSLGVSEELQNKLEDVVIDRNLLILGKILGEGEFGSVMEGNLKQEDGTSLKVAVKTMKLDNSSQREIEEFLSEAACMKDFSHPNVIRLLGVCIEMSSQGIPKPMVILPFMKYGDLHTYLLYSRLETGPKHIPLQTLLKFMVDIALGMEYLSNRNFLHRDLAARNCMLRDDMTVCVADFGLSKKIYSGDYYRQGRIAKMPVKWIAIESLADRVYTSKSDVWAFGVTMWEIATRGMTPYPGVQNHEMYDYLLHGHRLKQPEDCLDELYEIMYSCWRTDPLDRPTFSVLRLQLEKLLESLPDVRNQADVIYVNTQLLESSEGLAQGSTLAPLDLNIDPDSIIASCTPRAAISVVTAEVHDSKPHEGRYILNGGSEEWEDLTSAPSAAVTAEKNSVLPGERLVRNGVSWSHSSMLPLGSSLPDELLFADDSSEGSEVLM

[3] = tested on: c-Abl (mouse); experiment: as above
[4] = biological target: FGFR3 (UniProt P22607); experiment: as above
[5] = biological target: EPHB2 (UniProt P29323); experiment: as above
Sequence of EPHB2 (P29323 whole entry, looked up): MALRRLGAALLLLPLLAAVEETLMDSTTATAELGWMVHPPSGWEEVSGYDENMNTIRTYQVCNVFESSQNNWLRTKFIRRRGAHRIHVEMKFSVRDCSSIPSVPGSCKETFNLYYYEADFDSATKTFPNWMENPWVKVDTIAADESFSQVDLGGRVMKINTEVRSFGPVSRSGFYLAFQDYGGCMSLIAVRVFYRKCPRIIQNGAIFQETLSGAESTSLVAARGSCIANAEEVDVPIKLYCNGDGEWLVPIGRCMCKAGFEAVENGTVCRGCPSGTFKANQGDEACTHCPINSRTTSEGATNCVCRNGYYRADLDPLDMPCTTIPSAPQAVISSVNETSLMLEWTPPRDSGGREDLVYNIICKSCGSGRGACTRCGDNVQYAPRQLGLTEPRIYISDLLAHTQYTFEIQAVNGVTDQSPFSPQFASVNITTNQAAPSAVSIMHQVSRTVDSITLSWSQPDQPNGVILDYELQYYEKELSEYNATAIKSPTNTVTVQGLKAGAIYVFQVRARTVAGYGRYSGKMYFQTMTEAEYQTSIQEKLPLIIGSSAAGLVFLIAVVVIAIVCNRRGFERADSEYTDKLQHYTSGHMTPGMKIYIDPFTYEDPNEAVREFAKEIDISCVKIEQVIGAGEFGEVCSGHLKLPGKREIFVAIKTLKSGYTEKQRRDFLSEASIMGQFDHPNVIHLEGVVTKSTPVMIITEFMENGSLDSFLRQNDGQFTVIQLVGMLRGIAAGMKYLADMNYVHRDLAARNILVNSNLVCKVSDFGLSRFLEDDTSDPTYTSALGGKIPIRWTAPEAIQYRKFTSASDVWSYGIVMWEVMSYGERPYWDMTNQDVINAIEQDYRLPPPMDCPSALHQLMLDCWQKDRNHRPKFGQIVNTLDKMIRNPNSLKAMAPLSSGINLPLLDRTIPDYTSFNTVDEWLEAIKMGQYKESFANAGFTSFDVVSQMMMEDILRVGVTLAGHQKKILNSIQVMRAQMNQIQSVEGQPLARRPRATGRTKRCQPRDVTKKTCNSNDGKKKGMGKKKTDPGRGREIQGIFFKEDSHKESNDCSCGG

[6] = biological target: EPHB1 (UniProt P54762); experiment: as above
Sequence of EPHB1 (P54762 whole entry, looked up): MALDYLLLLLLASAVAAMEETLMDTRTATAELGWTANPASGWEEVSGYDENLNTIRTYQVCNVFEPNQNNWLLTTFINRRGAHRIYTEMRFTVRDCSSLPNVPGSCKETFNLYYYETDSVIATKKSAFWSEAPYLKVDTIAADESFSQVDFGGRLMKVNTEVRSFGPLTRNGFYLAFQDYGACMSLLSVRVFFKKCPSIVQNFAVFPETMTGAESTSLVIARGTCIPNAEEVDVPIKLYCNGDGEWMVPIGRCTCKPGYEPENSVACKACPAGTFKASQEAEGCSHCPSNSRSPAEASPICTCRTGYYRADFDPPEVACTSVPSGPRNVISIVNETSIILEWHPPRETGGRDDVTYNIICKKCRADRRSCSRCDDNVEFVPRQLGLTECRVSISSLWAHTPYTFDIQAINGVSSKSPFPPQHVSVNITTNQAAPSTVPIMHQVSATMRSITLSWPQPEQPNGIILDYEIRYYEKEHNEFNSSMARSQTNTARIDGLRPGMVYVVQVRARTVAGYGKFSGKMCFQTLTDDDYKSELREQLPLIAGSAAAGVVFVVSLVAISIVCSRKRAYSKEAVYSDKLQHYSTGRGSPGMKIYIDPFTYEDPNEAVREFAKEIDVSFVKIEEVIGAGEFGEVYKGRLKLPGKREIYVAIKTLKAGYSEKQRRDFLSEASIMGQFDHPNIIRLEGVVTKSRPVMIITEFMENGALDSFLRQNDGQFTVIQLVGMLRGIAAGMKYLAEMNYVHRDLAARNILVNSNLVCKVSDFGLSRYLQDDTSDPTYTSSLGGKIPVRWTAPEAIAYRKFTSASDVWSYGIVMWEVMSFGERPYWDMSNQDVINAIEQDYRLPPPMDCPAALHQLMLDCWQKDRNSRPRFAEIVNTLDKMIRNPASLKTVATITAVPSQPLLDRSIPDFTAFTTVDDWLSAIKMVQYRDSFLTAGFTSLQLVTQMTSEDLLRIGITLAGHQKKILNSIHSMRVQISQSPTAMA

[7] = biological target: Fyn (UniProt P06241); experiment: as above
Sequence of Fyn (P06241 whole entry, looked up): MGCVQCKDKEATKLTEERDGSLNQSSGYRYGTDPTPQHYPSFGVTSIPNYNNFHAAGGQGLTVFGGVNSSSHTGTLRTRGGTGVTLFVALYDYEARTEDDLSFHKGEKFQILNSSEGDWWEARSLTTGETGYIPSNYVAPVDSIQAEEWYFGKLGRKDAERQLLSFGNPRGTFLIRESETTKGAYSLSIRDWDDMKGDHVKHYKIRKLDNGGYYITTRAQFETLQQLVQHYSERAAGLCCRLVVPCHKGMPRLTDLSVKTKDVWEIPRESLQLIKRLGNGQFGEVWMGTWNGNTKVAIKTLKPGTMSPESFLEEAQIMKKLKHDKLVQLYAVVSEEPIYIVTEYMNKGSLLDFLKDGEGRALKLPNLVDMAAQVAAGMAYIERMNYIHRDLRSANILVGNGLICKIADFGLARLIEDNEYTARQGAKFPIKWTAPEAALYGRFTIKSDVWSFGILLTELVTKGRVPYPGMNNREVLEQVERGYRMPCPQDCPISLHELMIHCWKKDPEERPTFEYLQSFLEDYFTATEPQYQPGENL

[8] = biological target: FGFR1 (UniProt P11362); experiment: as above
[9] = biological target: Hck (UniProt P08631); experiment: as above
Sequence of Hck (P08631 whole entry, looked up): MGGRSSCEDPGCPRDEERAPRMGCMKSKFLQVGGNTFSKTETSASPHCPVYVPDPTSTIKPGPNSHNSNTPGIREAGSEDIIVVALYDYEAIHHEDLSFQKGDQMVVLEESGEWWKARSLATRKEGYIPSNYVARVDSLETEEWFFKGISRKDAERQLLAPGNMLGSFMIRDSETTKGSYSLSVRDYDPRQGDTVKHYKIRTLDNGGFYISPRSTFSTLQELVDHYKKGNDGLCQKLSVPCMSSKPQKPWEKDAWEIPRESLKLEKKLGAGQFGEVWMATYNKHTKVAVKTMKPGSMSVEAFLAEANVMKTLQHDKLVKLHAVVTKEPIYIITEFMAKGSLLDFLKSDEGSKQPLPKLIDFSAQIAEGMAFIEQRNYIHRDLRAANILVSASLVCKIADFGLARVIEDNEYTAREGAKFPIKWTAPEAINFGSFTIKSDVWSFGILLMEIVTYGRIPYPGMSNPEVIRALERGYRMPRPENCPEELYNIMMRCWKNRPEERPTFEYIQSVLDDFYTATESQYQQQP

[10] = biological target: Jak2 (UniProt O60674); experiment: as above
[11] = tested on: Fer (mouse); experiment: as above
[12] = tested on: AncSZ; experiment: as above
[13] = tested on: c-Src; experiment: as above
[14] = biological target: c-Src SH2; experiment: SH2 binding enrichment of the phosphorylated peptide, bacterial display (enrichment ratio); higher = better substrate or ligand; peptides without Tyr show the background
[15] = biological target: SHP2-C SH2; experiment: as above
[16] = biological target: Grb2 SH2 (UniProt P62993); experiment: as above
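Throughout, for SH2 binding enrichment of the phosphorylated peptide, bacterial display: peptide library displayed on the E. coli surface as eCPX fusions, selected cells deep-sequenced, score is each peptide's frequency after selection divided by its frequency in the input.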
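Throughout, for phosphorylation enrichment, bacterial display: 11-residue human phosphosite peptides and single-mutation variants displayed on the E. coli surface, counted by deep sequencing, each peptide's frequency after selection divided by its frequency in the unselected input library; frequency after pTyr selection over input frequency; kinase dosed for 20-30% of maximal phosphorylation in three min.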

Sequence of Fes (P07332 whole entry, looked up): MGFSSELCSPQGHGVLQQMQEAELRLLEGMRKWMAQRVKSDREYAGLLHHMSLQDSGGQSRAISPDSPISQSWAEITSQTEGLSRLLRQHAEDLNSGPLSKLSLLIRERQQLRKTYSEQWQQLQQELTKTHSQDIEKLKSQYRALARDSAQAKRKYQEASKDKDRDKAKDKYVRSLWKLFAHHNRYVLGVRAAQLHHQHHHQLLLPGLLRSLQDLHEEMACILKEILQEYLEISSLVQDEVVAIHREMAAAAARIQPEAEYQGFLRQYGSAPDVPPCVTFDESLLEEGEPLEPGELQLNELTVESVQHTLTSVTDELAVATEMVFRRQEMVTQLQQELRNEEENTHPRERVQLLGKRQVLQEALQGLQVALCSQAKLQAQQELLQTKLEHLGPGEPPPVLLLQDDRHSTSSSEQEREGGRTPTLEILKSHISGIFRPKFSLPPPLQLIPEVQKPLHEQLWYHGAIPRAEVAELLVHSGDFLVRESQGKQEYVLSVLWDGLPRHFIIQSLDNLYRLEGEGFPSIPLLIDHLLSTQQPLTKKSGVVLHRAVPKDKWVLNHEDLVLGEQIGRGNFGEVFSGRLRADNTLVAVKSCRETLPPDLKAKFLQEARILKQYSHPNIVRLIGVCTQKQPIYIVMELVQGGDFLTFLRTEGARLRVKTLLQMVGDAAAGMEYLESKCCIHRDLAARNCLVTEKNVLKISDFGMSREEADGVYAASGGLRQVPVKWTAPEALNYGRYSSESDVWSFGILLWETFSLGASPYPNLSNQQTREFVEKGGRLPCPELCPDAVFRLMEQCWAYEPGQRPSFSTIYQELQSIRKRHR

Row | SH2 binding enrichment [14] | SH2 binding enrichment [15] | SH2 binding enrichment [16] | Sequence | phosphorylation enrichment [1] | phosphorylation enrichment [2] | phosphorylation enrichment [3] | phosphorylation enrichment [4] | phosphorylation enrichment [5] | phosphorylation enrichment [6] | phosphorylation enrichment [7] | phosphorylation enrichment [8] | phosphorylation enrichment [9] | phosphorylation enrichment [10] | phosphorylation enrichment [11] | phosphorylation enrichment [12] | phosphorylation enrichment [13]
1 | 2.1 | 0.574 | 1.07 | RAMPVYEKAEH [TP63_Y231_K232E] | 0.598 | 0.453 | 0.576 | 0.545 | 0.834 | 0.654 | 0.867 | 0.493 | 1.02 | 1.03 | 1.79 | 0.664 | 0.776
2 | 0.955 | 0.767 | 1.1 | RASGIYYVPKG [APBB1IP_Y340] | 1.24 | 19.8 | 43.9 | 5.79 | 9.84 | 16.6 | 15.1 | 5.75 | 15.1 | 4.09 | 1.82 | 1.39 | 8.24
3 | 0.581 | 0.693 | 0.804 | RDMNAYIRPSP [MMAA_Y207] | 1.24 | 1.02 | 1.32 | 1.02 | 1.02 | 0.444 | 1.01 | 0.804 | 0.8 | 1.57 | 1.19 | 1.03 | 0.971
4 | 0.509 | 1.11 | 0.673 | REENGYNTYAS [FGF10_Y161_I156R] | 1.73 | 0.568 | 1.25 | 1.03 | 0.962 | 0.856 | 1.21 | 0.761 | 1.3 | 1.27 | 0.559 | 1.22 | 0.9
5 | 0.494 | 0.642 | 0.716 | RHFTTYDTNGR [CLCA1_Y665_Y661H] | 0.938 | 0.707 | 0.618 | 0.755 | 0.97 | 0.609 | 1.01 | 0.808 | 0.835 | 0.844 | 0.594 | 0.93 | 0.876
6 | 0.519 | 0.746 | 1.05 | RHPLDYLRQFP [NARS2_Y138_E137D_YF] | 0.74 | 0.56 | 0.753 | 0.449 | 0.583 | 0.458 | 0.511 | 0.429 | 0.498 | 0.78 | 0.349 | 0.719 | 0.609
7 | 1.5 | 0.841 | 0.864 | RHTRSYDYTEG [FGF7_Y56_M59T] | 0.918 | 0.514 | 0.414 | 0.546 | 0.369 | 0.407 | 0.635 | 0.488 | 0.602 | 0.587 | 0.477 | 0.521 | 0.476
8 | 2.79 | 2.03 | 15.4 | RLGNQYVNVMN [SLC3A1_Y461] | 0.727 | 0.352 | 0.524 | 0.991 | 0.59 | 2.21 | 0.471 | 0.541 | 0.446 | 0.64 | 0.513 | 0.619 | 0.508
9 | 0.521 | 0.852 | 0.823 | RLPSGYGLAFR [DLK1_Y262_YF] | 0.885 | 0.396 | 0.889 | 0.595 | 0.526 | 0.416 | 0.549 | 0.422 | 0.509 | 0.837 | 0.49 | 0.734 | 0.478
10 | 1.23 | 0.501 | 0.599 | RMGNLYDIDED [GRIN2A_Y1246] | 1.32 | 0.606 | 1.11 | 0.808 | 0.491 | 0.583 | 2.25 | 0.591 | 1.25 | 1.36 | 0.543 | 1.11 | 1.25

Further lines, the sequence ahead of its results:

Row | Sequence | SH2 binding enrichment [14] | SH2 binding enrichment [15] | SH2 binding enrichment [16] | phosphorylation enrichment [1] | phosphorylation enrichment [2] | phosphorylation enrichment [3] | phosphorylation enrichment [4] | phosphorylation enrichment [5] | phosphorylation enrichment [6] | phosphorylation enrichment [7] | phosphorylation enrichment [8] | phosphorylation enrichment [9] | phosphorylation enrichment [10] | phosphorylation enrichment [11] | phosphorylation enrichment [12] | phosphorylation enrichment [13]
11 | RELGEYPLAEY [ALDH1A3_Y492_A493P] | 2.46 | 0.291 | 0.795 | 1.41 | 0.516 | 1.17 | 0.685 | 0.495 | 0.484 | 0.582 | 0.688 | 0.505 | 1.97 | 0.593 | 0.982 | 0.492
12 | RELSWYRGRRP [HESX1_Y106] | 0.318 | 0.422 | 0.734 | 0.794 | 0.833 | 0.787 | 0.563 | 0.683 | 0.484 | 0.781 | 0.53 | 0.809 | 0.895 | 0.693 | 1.02 | 0.727
13 | REVPVYTDSEP [FAM120B_Y368] | 0.911 | 0.351 | 0.986 | 1.35 | 0.478 | 0.964 | 1.4 | 0.725 | 0.965 | 0.753 | 0.588 | 0.643 | 1.38 | 0.895 | 1.35 | 0.872
14 | RFFTTYDTNGR [CLCA1_Y665_YF] | 0.532 | 1.67 | 0.825 | 0.951 | 0.707 | 0.858 | 0.878 | 0.834 | 0.726 | 0.627 | 0.674 | 0.787 | 0.816 | 0.688 | 1.08 | 1.09
15 | RFLRGYRQFAF [HLA-A_Y137_D140Y_YF] | 0.412 | 0.521 | 0.895 | 0.908 | 0.587 | 0.661 | 0.579 | 0.514 | 0.67 | 0.583 | 0.643 | 0.519 | 0.661 | 0.678 | 1.19 | 0.76
16 | RFVTRYIFNRE [HLA-DQB1_Y62_YF] | 0.355 | 0.721 | 0.627 | 1.68 | 0.643 | 0.528 | 0.796 | 0.591 | 0.536 | 0.76 | 0.923 | 0.655 | 0.921 | 0.615 | 1.2 | 0.593
17 | RGESFYQDTMN [RARS_Y338_R341T] | 0.694 | 0.807 | 0.98 | 0.98 | 1.02 | 1.03 | 0.888 | 1.63 | 2.62 | 0.634 | 0.695 | 0.429 | 0.941 | 1.79 | 1.02 | 0.602
18 | RGKLFYQEVPA [METTL11B_Y76_A72G] | 1.11 | 0.804 | 0.956 | 1.05 | 3.21 | 0.503 | 1.29 | 0.777 | 1.48 | 0.544 | 1.37 | 0.853 | 0.649 | 0.719 | 0.844 | 0.564
19 | RGVTRYIYNRE [HLA-DQB1_Y62_Y58G] | 0.527 | 0.756 | 0.802 | 1.16 | 0.865 | 1 | 0.619 | 0.547 | 0.912 | 0.96 | 0.809 | 0.97 | 1.25 | 0.768 | 1.34 | 0.953
20 | RHLQEYQDLLN [GFAP_Y349] | 1.13 | 1.27 | 1.71 | 0.807 | 0.392 | 0.417 | 0.477 | 0.45 | 0.513 | 0.616 | 0.418 | 0.468 | 0.565 | 0.389 | 0.737 | 0.399
21 | RIDPDYVGRVR [IGSF9_Y81] | 0.583 | 0.755 | 0.758 | 0.702 | 0.405 | 0.65 | 0.482 | 0.402 | 0.534 | 0.481 | 0.496 | 0.403 | 0.778 | 0.384 | 0.871 | 0.563
22 | RILDVYIFLGP [GAA_Y340_G335R] | 0.534 | 0.595 | 0.746 | 1.05 | 0.492 | 0.543 | 0.672 | 0.676 | 0.842 | 0.46 | 0.836 | 0.547 | 0.858 | 0.584 | 1 | 0.393
23 | RKKEEYKMALF [F8_Y1990_YF] | 0.846 | 1.21 | 1.09 | 0.708 | 0.391 | 0.72 | 0.607 | 0.738 | 0.734 | 0.31 | 0.4 | 0.465 | 0.691 | 0.494 | 0.759 | 0.555
24 | RKLVDYDSARH [BIN1_Y150] | 0.387 | 0.42 | 1.03 | 0.968 | 0.57 | 0.916 | 0.668 | 0.481 | 0.498 | 0.449 | 0.571 | 0.418 | 0.792 | 0.565 | 0.491 | 0.649
25 | RKVLVYDKLNV [ROR2_Y624_N620K] | 1.44 | 1.09 | 0.906 | 0.852 | 2 | 0.854 | 0.44 | 0.794 | 1.37 | 1.71 | 0.49 | 10.3 | 0.548 | 1.25 | 0.875 | 1.82
26 | RLAQRYLIWEC [SCN5A_Y694] | 0.691 | 0.655 | 0.982 | 1.66 | 0.609 | 0.86 | 0.841 | 0.914 | 0.943 | 0.595 | 0.647 | 0.679 | 1.34 | 0.546 | 1.09 | 0.492
27 | RLFARYFQGDL [PDK3_Y337_YF] | 0.292 | 0.454 | 0.713 | 0.882 | 0.525 | 0.524 | 0.627 | 0.547 | 0.416 | 0.499 | 0.572 | 0.723 | 0.545 | 0.474 | 0.826 | 0.481
28 | RLLCEYQELMN [KRT75_Y434_R432C] | 0.54 | 0.566 | 0.618 | 1.78 | 0.369 | 0.804 | 1.6 | 1.09 | 1.34 | 0.83 | 0.961 | 0.761 | 1.33 | 0.839 | 1.5 | 0.647
29 | RLLRGYNQSAF [HLA-C_Y137_D138N_YF] | 0.976 | 0.705 | 1.14 | 0.804 | 0.56 | 0.316 | 0.547 | 0.417 | 0.503 | 0.458 | 0.665 | 0.402 | 0.476 | 0.268 | 0.54 | 0.424
30 | RLSVDCGKKSK [TUBA4A_Y161_Y161C] | 0.884 | 0.984 | 0.846 | 0.825 | 0.432 | 0.828 | 0.788 | 0.619 | 1.03 | 0.551 | 0.444 | 0.462 | 1.1 | 0.571 | 0.684 | 0.471
31 | RNDRVYQPLRD [CD3D_Y149_Q147R] | 0.943 | 0.727 | 0.845 | 0.785 | 0.786 | 0.689 | 0.616 | 0.432 | 0.629 | 0.675 | 0.41 | 5.18 | 0.509 | 0.475 | 0.604 | 1.55
32 | RNFVHYVQGLK [VWF_Y1400_R1399H] | 0.7 | 1.96 | 1.14 | 0.833 | 0.544 | 0.669 | 0.52 | 0.515 | 0.511 | 0.613 | 0.429 | 0.369 | 0.605 | 0.349 | 0.875 | 0.583
33 | RNGNRYFKGIV [DCX_Y64_D62N] | 0.509 | 0.726 | 0.602 | 0.607 | 0.701 | 0.799 | 0.513 | 0.51 | 0.516 | 0.42 | 0.578 | 0.527 | 1.02 | 0.6 | 1.33 | 0.846
